Experiments:
[1] = target: SARS-CoV-2 Beta-variant Spike with six stabilizing proline substitutions (S-6P) (SARS-CoV-2 Beta variant (B.1.351), strain)
[2] = target: SARS-CoV-2 Omicron BA.1 receptor-binding domain (RBD) (SARS-CoV-2 Omicron BA.1, strain, biotin on the AviTag (expressed in the presence of BirA)); assay: BLI; details: both partners purified

B1: REGN10987 VH R16G-V108D (antibody, V domains shown)
VH: QVQLVESGGGVVQPGGSLRLSCAASGFTFSNYAMYWVRQAPGKGLEWVAVISYDGSNKYYADSVKGRFTISRDNSKNTLYLQMNSLRTEDTAVYYCASGSDYGDYLLDYWGQGTLVTVSS
VL: QSALTQPASVSGSPGQSITISCTGTSSDVGGYNYVSWYQQHPGKAPKLMIYDVSKRPSGVSNRFSGSKSGNTASLTISGLQSEDEADYYCNSLTSISTWVFGGGTKLTVL
- binding result [1]: binds

B2: another design of REGN10987 (5.1-fold improvement for the Omicron BA.1 RBD), Fab (Fab, V domains shown)
VH: QVQLVESGGGVVQPGGSLRLSCAASGFTFSNYAMYWVRQAPGKGLEWVAVISYDGSNKYYADSVKGRFTISRDNSKNTLYLQMNSLRTEDTAVYYCASGSDYGDYLLVYWGQGTLVTVSS
VL: QSALTQPASVSGSPGQSITISCTGTSSDVGGYNYVSWYQQHPGKAPKLMIYDVSKRPSGVSNRFSGSKSGNTASLTISGLQSEDEADYYCCSLTSISTWVFGGGTKLTVL
- fold improvement in Fab Kd over wild-type [2]: 5.1 fold

B3: best design of C143, IgG (antibody, V domains shown)
VH: EVQLVESGGGLVQPGGSLRLSCAASGFSVSTKYMTWVRQAPGKGLEWVSVLYSGGSDYYADSVKGRFTISRDNSKNALYLQMNSLRVEDTGVYYCARDSSEVRDHPGHPGRSVGAFDIWGQGTMVTVSS
VL: QSALTQPASVSGSPGQSITISCTGTSNDVGSYNLVSWYQQYPGKAPKLLIFEVTKRSSGISNRFSGSKSGNTASLTISGLQGEDEADYYCCSYAGASTFVFGGGTKLTVL
- fold improvement in apparent Kd over wild-type [2]: 3.8 fold
